The results in this text go back to patent US20230193255.

Series [1] addresses Variant TEV cleavage site ENLFFQS.
The target in series [2] is TEV cleavage site ENLYFQS.
Series [3] has as its target Variant TEV cleavage site ENVYFQS.

B1: TEV protease S219V mutant (protein)
chain: ESLFKGPRDYNPISSTICHLTNESDGHTTSLYGIGFGPFIITNKHLFRRNNGTLLVQSLHGVFKVKNTTTLQQHLIDGRDMIIIRMPKDFPPFPQKLKFREPQREERICLVTTNFQTKSMSSMVSDTSCTFPSSDGIFWKHWIQTKDGQCGSPLVSTRDGFIVGIHSASNFTNTNNYFTSVPKNFMELLTNQEAQQWVSGWRLNADSVLWGGHKVFMVKPEEPFQPVKEATQLMN
For B1, the “efficiency of cleavage by TEV at the TCS” value is given as “found to exhibit 10% efficiency” in series [1], “considered to be 100% efficient” in series [2] and “found to exhibit 1% efficiency” in series [3].
